Measurements as given in the RNAGym collection of RNA variant scans (doi:10.7554/elife.80360).

B1: CPEB3 Ribozyme (parent)
chain: GGGGGCCACAGCAGAAGCGUUCACGUCGCGGCCCCUGUCAGAUUCUGGUGAAUCUGCGAAUUCUGCUGU

Variants of: B1
Assay: self-cleavage, relative activity (ratio to wild type); higher = more cleavage; co-transcriptional
For GGGGGCCACAGCAGAGGCGUUCACGUCGCGGGCCCUGUCAGAUUCUGGUGAAUCUGCGAAUUCUGCUGU, the self-cleavage was 0.125.
In the case of GGGGGCCACAGCAGAUGCGUUCACGUCGCGGCCCCUGUCAGAUUCUGGUGAAUCUGCGGAUUCUGCUGU, the self-cleavage is reported as 0.909.
With GGGGGCCACAGCAGAUGCGUUCACGUCGCGGCCCCUGUCAGAUUCUGGUGAAUCUGCGCAUUCUGCUGU the self-cleavage was 0.427.
Variant GGGGGCCACAGCAGAGGCGUUCACGUCGCGGCCCCUGUCAGAUUCUGGUGAAUCUGCGAAUGCUGCUGU has a self-cleavage of 0.593.
Variant GGGGGCCACAGCAGAGGCGUACACGUCGCGGCCCCUGUCAGAUUCUGGUGAAUCUGCGAAUUCUGCUGU has a self-cleavage of 0.92.
Variant GGGGGCCACAGCAGAGGCGUUCACGUCGCGGCCCCUGUCAGAUUCUGGUGAAUGUGCGAAUUCUGCUGU has a self-cleavage of 0.581.
In the case of GGGGGCCACAGCAGAGGCGUUCACGUCGCGGCCCCUGUCAGAUUCUGGUGAAUAUGCGAAUUCUGCUGU, the self-cleavage is reported as 0.413.
In the case of GGGGGCCACAGCAGAGGCGUUCACGCCGCGGCCCCUGUCAGAUUCUGGUGAAUCUGCGAAUUCUGCUGU, the self-cleavage is reported as 0.555.
GGGGGCCACAGCAGAGGCGUUCACGUCGCGGCCCCUGUCAGAUUCAGGUGAAUCUGCGAAUUCUGCUGU gave a self-cleavage of 0.948.
In the case of GGGGGCCACAGCAGAGGCGUUCACGUCACGGCCCCUGUCAGAUUCUGGUGAAUCUGCGAAUUCUGCUGU, the self-cleavage is reported as 0.215.
GGGGGCCACAGCAGAGGCGUUCACGUCUCGGCCCCUGUCAGAUUCUGGUGAAUCUGCGAAUUCUGCUGU gave a self-cleavage of 0.188.
For GGGGGCCACAGCAGAGGCGUUCACGUCGCGGCCCCUGUCAGAUUCUGGUGAAUCUUCGAAUUCUGCUGU, the self-cleavage was 0.634.
GGGGGCCACAGCAGAGGCGUUCACGUCGCGGCCCCUGUCAGAUUCUGGUGAAUCUGCGAAUUCUUCUGU showed a self-cleavage of 0.571.
Variant GGGGGCCACAGCAGAGGCGUUCACGUCGCGGCCCCUGUCAGAUUCUGGUGAAUCUGCGAAUUCUACUGU has a self-cleavage of 0.622.
GGGGGCCACAGCAGAGGCGUUCACGUCGCGGCCCGUGUCAGAUUCUGGUGAAUCUGCGAAUUCUGCUGU gave a self-cleavage of 0.373.
Work on GGGGGCCACAGCAGAGGCGUUCACGUCGCGGCCCAUGUCAGAUUCUGGUGAAUCUGCGAAUUCUGCUGU yielded a self-cleavage of 0.179.
For GGGGGCCACAGCAGAGGCGUUCACGUCGCGGCCCCGGUCAGAUUCUGGUGAAUCUGCGAAUUCUGCUGU, the self-cleavage was 0.259.
Work on GGGGGCCACAGCAGAGGCGUUCACGUCGCGGCCCCAGUCAGAUUCUGGUGAAUCUGCGAAUUCUGCUGU yielded a self-cleavage of 0.179.
Variant GGGGGCCACAGCAGAGGCGUUCACGUCGCGGCCCCUGUCAGAUUCUGGUGAAUCUGCGUAUUCUGCUGU has a self-cleavage of 0.535.
Work on GGGGGCCACAGCAGAGGCGUUCACGUUGCGGCCCCUGUCAGAUUCUGGUGAAUCUGCGAAUUCUGCUGU yielded a self-cleavage of 0.228.
Variant GGGGGCCACAGCAGAGGCGUUCACGUGGCGGCCCCUGUCAGAUUCUGGUGAAUCUGCGAAUUCUGCUGU has a self-cleavage of 0.102.
GGGGGCCACAGCAGAGGCGUUCACGUAGCGGCCCCUGUCAGAUUCUGGUGAAUCUGCGAAUUCUGCUGU showed a self-cleavage of 0.481.
GGGGGCCACAGCAGAGGCGUUCACGUCGCGGCCCCUGUCAGAUGCUGGUGAAUCUGCGAAUUCUGCUGU showed a self-cleavage of 0.84.
In the case of GGGGGCCACAGCAGAGGCGUUCACGUCGCGGCCCCUGUCAGAUCCUGGUGAAUCUGCGAAUUCUGCUGU, the self-cleavage is reported as 0.734.
In the case of GGGGGCCACAGCAGAGGCGUUCACGUCGCGGCCCCUGGCAGAUUCUGGUGAAUCUGCGAAUUCUGCUGU, the self-cleavage is reported as 0.143.
Variant GGGGGCCACAGCAGAGGCGUUCACGUCGCGGCCCCUGUCAGAUUCUCGUGAAUCUGCGAAUUCUGCUGU has a self-cleavage of 1.02.
Work on GGGGGCCACAGCAGAGGCGUUCACGUCGCGGCCCCUGUCAGAUUCUAGUGAAUCUGCGAAUUCUGCUGU yielded a self-cleavage of 0.933.
GGGGGCCACAGCAGACGCGUUCACGUCGCGGCCCCUGUCAGAUUCUGGUGAAUCUGCGAAUGCUGCUGU gave a self-cleavage of 0.148.
Variant GGGGGCCACAGCAGACGCGUUCACGUCGCGGCCCCUGUCAGAUUCUGGUGAAUCUGCGAAUCCUGCUGU has a self-cleavage of 0.222.
GGGGGCCACAGCAGACGCGUUCACGUCGCGGCCCCUGUCAGAUUCUGGUGAAUCUGCGAAUUCCGCUGU showed a self-cleavage of 0.145.
With GGGGGCCACAGCAGACGCGUUCACGUCGCGGCCCCUGUCAGAUUCUGGUGAAUCUGCGAAUUCAGCUGU the self-cleavage was 0.0981.
For GGGGGCCACAGCAGAGCCGUUCACGUCGCGGCCCCUGUCAGAUUCUGGUGAAUCUGCGAAUUCUGCUGU, the self-cleavage was 0.131.
Work on GGGGGCCACAGCAGAUGCGUUCACGUCGCGGCCCCUGUCUGAUUCUGGUGAAUCUGCGAAUUCUGCUGU yielded a self-cleavage of 0.415.
GGGGGCCACAGCAGAUGCGUUCACGUCGCGGCCCCUGUCCGAUUCUGGUGAAUCUGCGAAUUCUGCUGU gave a self-cleavage of 0.267.
Work on GGGGGCCACAGCAGAGGCGUUCACGUCGCGGCCCCUGUCAGAUUCUGGUGAAUCUGCGAAUUCUGCUAU yielded a self-cleavage of 1.02.
GGGGGCCACAGCAGAGGCGUUCACGUCGGGGCCCCUGUCAGAUUCUGGUGAAUCUGCGAAUUCUGCUGU gave a self-cleavage of 0.309.
Work on GGGGGCCACAGCAGAGGCGUUCACGUCGCGGCCCCUGUCAGAUUCUGGUGAAUCUGCGAAUUUUGCUGU yielded a self-cleavage of 0.861.
Work on GGGGGCCACAGCAGAGGCGUUAACGUCGCGGCCCCUGUCAGAUUCUGGUGAAUCUGCGAAUUCUGCUGU yielded a self-cleavage of 0.167.
Work on GGGGGCCACAGCAGAGGCGUUUACGUCGCGGCCCCUGUCAGAUUCUGGUGAAUCUGCGAAUUCUGCUGU yielded a self-cleavage of 0.156.
